This test has as its target Recombinant human IL-17A (Sino Biological, 12047-HNAS) (human) (UniProt Q16552). The experiment in a line: indirect ELISA, human IL-17A coated (Table 7, not in this copy). In general terms: An ELISA detects its analyte on a solid surface through an enzyme-linked reagent.

Chain of Recombinant human IL-17A (Sino Biological, 12047-HNAS) (human) (Q16552 24-155): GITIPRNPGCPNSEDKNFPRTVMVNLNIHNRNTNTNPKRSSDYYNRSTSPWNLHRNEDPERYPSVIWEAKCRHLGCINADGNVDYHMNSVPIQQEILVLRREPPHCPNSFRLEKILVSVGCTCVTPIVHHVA

B1: 杂交瘤14F10/9F6产生的鼠源抗体 (antibody, V domains shown)
VH: QVQLQQSGPEVVRPGVSVKISCKGSGYTFTDYAMHWVKQSHAKSLEWIGVIGPYNDNTNYNQKFKGKATMTVDKSSSTAYMEIARLTSEDSAIYYCARGERYFDYWGQGTTLTVSS
VL: DIQMTQSSSYLSVSLGGRVTITCRASDHINNWLAWYQQKPGNAPRLLIYGATSLETGVPSRFSGSGSGKDYTLSITSLQTEDVATYYCQQYWTIPLTFGAGTKLELK
With B1, the EC50 ratio to the humanized antibody was determined as 3 fold.

Source of the values: CN107522783A.
